From patent US20230027639A1

Assays:
[1] = target: anti-CD19 CAR on CD19 CAR-T cells (the extracellular binding domain of the CAR was FMC63scfv); assay: flow cytometry on CD19 CAR-T cells; mean ± SD of three parallel experiments
[2] = target: anti-CD19 CAR on CD19 CAR-T cells (the extracellular binding domain of the CAR was FMC63scfv); assay: flow cytometry on CD19 CAR-T cells, Biotinylated Human CD19 Fc Tag detected with PE anti-Biotin; percent CAR-positive cells, replicate 1
[3] = target: anti-CD19 CAR on CD19 CAR-T cells (the extracellular binding domain of the CAR was FMC63scfv); assay: flow cytometry on CD19 CAR-T cells, Biotinylated Human CD19 Fc Tag detected with PE anti-Biotin; percent CAR-positive cells, replicate 2
[4] = target: anti-CD19 CAR on CD19 CAR-T cells (the extracellular binding domain of the CAR was FMC63scfv); assay: flow cytometry on CD19 CAR-T cells, Biotinylated Human CD19 Fc Tag detected with PE anti-Biotin; percent CAR-positive cells, replicate 3
[5] = target: anti-CD19 CAR on CD19 CAR-T cells (the extracellular binding domain of the CAR was FMC63scfv); assay: cell-based or functional assay
[6] = target: anti-CD19 CAR on CD19 CAR-T cells (the extracellular binding domain of the CAR was FMC63scfv); assay: flow cytometry on CD19 CAR-T cells, biotin-labelled antibody detected with PE anti-Biotin; percent CAR-positive cells, replicate 1
[7] = target: anti-CD19 CAR on CD19 CAR-T cells (the extracellular binding domain of the CAR was FMC63scfv); assay: flow cytometry on CD19 CAR-T cells, biotin-labelled antibody detected with PE anti-Biotin; percent CAR-positive cells, replicate 2
[8] = target: anti-CD19 CAR on CD19 CAR-T cells (the extracellular binding domain of the CAR was FMC63scfv); assay: flow cytometry on CD19 CAR-T cells, biotin-labelled antibody detected with PE anti-Biotin; percent CAR-positive cells, replicate 3

CAR % (mean of three measurements) [1] [%] | CAR % [2] [%] | CAR % [3] [%] | CAR % [4] [%] | CAR % [6] [%] | CAR % [7] [%] | CAR % [8] [%] | Molecule | killing rate of CD19+K562 cells by CAR-T cells (LDH release), effector:target 1:1, mAb 5 µg/ml (16.0% without mAb) [5] [%] | killing rate of CD19+K562 cells by CAR-T cells (LDH release), effector:target 1:1, mAb 25 µg/ml (16.0% without mAb) [5] [%] | killing rate of CD19+K562 cells by CAR-T cells (LDH release), effector:target 5:1, mAb 5 µg/ml (51.5% without mAb) [5] [%] | killing rate of CD19+K562 cells by CAR-T cells (LDH release), effector:target 5:1, mAb 25 µg/ml (51.5% without mAb) [5] [%]
14.2 | 10.3 | 12.3 | 20.1 | – | – | – | Biotinylated Human CD19, Fc Tag (ACROBiosystems, model CD19-H8259) (from UniProt P15391 20-291) (Fc fusion) | – | – | – | –
– | – | – | – | – | – | – | monoclonal antibody 3984-mab001-H (scFv) scFv: EIQLQQSGPELVKPGASVKVSCKASGYSFTDYTMYWVKQSHGKSLEWIGYIDPYNGGTNYSQRFKGKATLTVDKSSSTAFMHLNSLPSEDSAVYYCANTYDNYEFAYWGQGTLVTVSAGGGGSGGGGSGGGGSDIQMTQTTSSLSASLGDRVTISCRASQDISNYLNWYQQKPDGTVKLLIYYTSRLRSGVPSRFSGSGSGADYSLTISNLEQEDIATYFCQQGDTLPYTFGGGTKLEIN | 16.1 | 6.5 | 39.1 | 32.1
47.9 | – | – | – | 47.9 | 48.5 | 47.2 | biotin-labeled monoclonal antibody Bio-3984-mab001-H (scFv, biotin label (Sulfo-NHS-Biotin); labelled residues not stated) scFv: EIQLQQSGPELVKPGASVKVSCKASGYSFTDYTMYWVKQSHGKSLEWIGYIDPYNGGTNYSQRFKGKATLTVDKSSSTAFMHLNSLPSEDSAVYYCANTYDNYEFAYWGQGTLVTVSAGGGGSGGGGSGGGGSDIQMTQTTSSLSASLGDRVTISCRASQDISNYLNWYQQKPDGTVKLLIYYTSRLRSGVPSRFSGSGSGADYSLTISNLEQEDIATYFCQQGDTLPYTFGGGTKLEIN | – | – | – | –
